Laboratory results reported in paper PMC3605417, “An Archaeal Homolog of Proteasome Assembly Factor Functions as a Proteasome Activator” (PLoS ONE, 2013).
Positions count from the first letter of the chain named.

T1: non-tagged mature 20S proteasome, inactive mutant (α + β1^NΔ6/T7A), Pyrococcus furiosus (Pyrococcus furiosus, UniProt Q8U0L6 1-260; Q8U4C9 7-196, T7A)
T1 construct: proteasome α subunit PsmA, Pyrococcus furiosus, locus PF1571, residues 1-260; proteasome β subunit 1 PsmB1, Pyrococcus furiosus, locus PF0159 (residues 1-196); NΔ6: the six N-terminal (propeptide) residues removed; non-tagged version; source: E. coli BL21(DE3), co-expressed, purified (heat precipitation at 85°C, HiTrap Q HP, Sephacryl S-400); copies: 14 + 14
T1 sequence (looked up) 1: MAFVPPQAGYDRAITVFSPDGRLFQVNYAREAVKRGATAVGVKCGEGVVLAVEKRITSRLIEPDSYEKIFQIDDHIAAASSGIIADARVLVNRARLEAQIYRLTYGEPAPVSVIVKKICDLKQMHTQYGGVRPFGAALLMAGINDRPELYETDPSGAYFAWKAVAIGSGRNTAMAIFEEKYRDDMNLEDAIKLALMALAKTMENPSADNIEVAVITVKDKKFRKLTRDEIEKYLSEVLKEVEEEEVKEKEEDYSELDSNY
T1 sequence (looked up) 2: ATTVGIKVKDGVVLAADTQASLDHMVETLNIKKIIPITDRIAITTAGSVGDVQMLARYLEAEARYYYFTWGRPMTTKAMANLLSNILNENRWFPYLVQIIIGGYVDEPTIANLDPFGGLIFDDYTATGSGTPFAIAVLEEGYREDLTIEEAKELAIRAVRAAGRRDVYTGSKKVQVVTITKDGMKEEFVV

T2: immature 20S proteasome retaining the β subunit propeptide, inactive mutant (α + β1^T7A), Pyrococcus furiosus (Pyrococcus furiosus, UniProt Q8U0L6 1-260; Q8U4C9 1-196, T7A)
T2 construct: proteasome α subunit PsmA, Pyrococcus furiosus, locus PF1571, residues 1-260; proteasome β subunit 1 PsmB1 with its propeptide, Pyrococcus furiosus, locus PF0159, residues 1-196; non-tagged version; source: E. coli BL21(DE3), co-expressed, purified (heat precipitation at 85°C, HiTrap Q HP, Sephacryl S-400); copies: 14 + 14
T2 sequence (looked up) 1: T1 sequence (looked up) 1
T2 sequence (looked up) 2: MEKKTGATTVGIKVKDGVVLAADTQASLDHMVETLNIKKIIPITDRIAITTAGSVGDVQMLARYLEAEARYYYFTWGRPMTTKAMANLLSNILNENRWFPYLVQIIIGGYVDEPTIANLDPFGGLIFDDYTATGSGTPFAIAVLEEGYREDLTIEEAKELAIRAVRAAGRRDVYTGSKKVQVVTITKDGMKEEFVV

T3: His6-tagged wild-type 20S proteasome (αβ1 form), Pyrococcus furiosus (Pyrococcus furiosus, UniProt Q8U0L6 1-260; Q8U4C9 1-196)
T3 sequence (looked up) 1: T1 sequence (looked up) 1
T3 sequence (looked up) 2: T2 sequence (looked up) 2 with A7T

B1: non-tagged double homoheptameric ring of the proteasome α subunit, Pyrococcus furiosus (complex, UniProt Q8U0L6 1-260, looked up)
chain: T1 sequence (looked up) 1
notes: proteasome α subunit PsmA, Pyrococcus furiosus, locus PF1571, residues 1-260; also called α subunit ring; source: E. coli BL21(DE3), purified (same procedure as the non-tagged 20S proteasome mutants); copies: 14
B2: His6-PbaB, Pyrococcus furiosus (natural protein, UniProt Q8U1R3 1-280, looked up)
chain: MEEGGTRNREEGKMKETTIVVYERPDIYDPIFIEGLPGIGLVGKLAAEHLIQELKAKKFAELYSPHFMHQVLIRKNSVVELMKNEFYYWKSPDDEHRDLIIVTGDTQVPPTDSYGHFEVAGKMLDFVQEFGTREIITMGGYQVPEIQGEPRVLAAVTHEDLIEYYKSKLEGCSVEVIWREDEGGAIVGAAGLLLGIGKLRGMFGISLLGESLGYIVDAKAAKAVLSAVTKILGLEIDMTALDERAKETEEILRKVEEMQRAMMEQVTPKLPHEEEDRGYL
notes: PbaB, Pyrococcus furiosus, locus PF1142, residues 1-280; pET-28b (NdeI/XhoI); Used in SPR (immobilised), ultracentrifugation, electron tomography and the chaperone assay; also called His6-tagged PbaB; PF1142; source: E. coli BL21(DE3), purified (Ni2+-chelating Sepharose, HiTrap Q HP, Superdex 200); not shown: His6, N-terminal, kept
B3: PbaB (non-tagged), Pyrococcus furiosus (natural protein, UniProt Q8U1R3 1-280, looked up)
chain: B2 chain
notes: PbaB, Pyrococcus furiosus, locus PF1142, residues 1-280; Homotetramer in the crystal and by ultracentrifugation; Cloned into NdeI/XhoI of pET-28b; also called non-tagged PbaB; PF1142; source: E. coli BL21(DE3), purified (Ni2+-chelating Sepharose, thrombin cleavage of the His6-tag, HiTrap Q HP, Superdex 200); not shown: His6, N-terminal, cleaved
B4: His6-PbaA, Pyrococcus furiosus (natural protein, UniProt Q8U4Q9 1-242, looked up)
chain: MEEKKPVNLVLPEVENAIFIEGYPGVGLVGHIAANFLAKELDMDLIGYVDSLFIPPMSLILEGRPTPPLRFYGKNNIIIAIADIFLPPTLVNEIAKEIVNYLKKVNAEKVISLAGMGIGFFKDTFEVWGIGGSEEENKELESLGVKILKYGSITGMSGKLLWEASRAGLKSYVLLGETFGDRPDPRAAANVVEVLNKMLGLNVSVEPLLKEAEMIEEQLRRMHEQMEEARRKMERQYETMYL
notes: PbaA, Pyrococcus furiosus, locus PF0015, residues 1-242; pET-28b (NdeI/XhoI); Pentamer in solution by sedimentation velocity; also called His6-tagged PbaA; PF0015; source: E. coli BL21(DE3), purified (Ni2+-chelating Sepharose, HiTrap Q HP, Superdex 200); not shown: His6, N-terminal, kept

Assays:
[1] = target: B2; assay: SPR; Biacore T100, Sensor Chip NTA, 25°C; His6-tagged PbaB (wild type or CΔ3) immobilised; non-tagged mature (18.8-300 nM) or immature (18.5-296 nM) 20S proteasome or α subunit ring (15.4-246 nM) injected; 10 mM HEPES (pH 7.5), 150 mM NaCl, 0.05% Tween20; 10 μl/min; settings: both partners purified
[2] = target: the molecule itself; assay: AUC; sedimentation velocity, 20 μM His6-tagged PbaA or PbaB, 150 mM sodium phosphate (pH 7.5), 100 mM NaCl, 38,000 rpm, 20°C; continuous c(s) distribution (SEDFIT)
[3] = target: T1, non-tagged mature 20S proteasome, …; assay: SPR; Biacore T100, Sensor Chip NTA, 25°C; His6-tagged PbaB (wild type or CΔ3) immobilised; non-tagged mature (18.8-300 nM) or immature (18.5-296 nM) 20S proteasome or α subunit ring (15.4-246 nM) injected; 10 mM HEPES (pH 7.5), 150 mM NaCl, 0.05% Tween20; 10 μl/min; settings: both partners purified
[4] = target: T2, immature 20S proteasome retaining the β …; assay: as above; settings: both partners purified
[5] = target: T3, His6-tagged wild-type 20S proteasome …; assay: cell-based or functional assay
[6] = target: the molecule itself; assay: crystal structure; non-tagged PbaB, 2.20 Å, space group C222(1), four molecules per asymmetric unit; 10% PEG10000, 100 mM Bis-Tris (pH 5.0), 50 mM sodium acetate, 5 mM NaAuCl4, 20°C

## B1
[1]
  Kd: 330 nM

## B2
[2]
  stoichiometry N: 4
[3]
  Kd: 7.8 nM
[4]
  Kd: 21 nM
[5]
  proteasomal degradation of human α-synuclein (18 μM) by 35 nM wild-type 20S proteasome with 105 nM PbaB, 95°C; fold acceleration by PbaB: ~2.5 fold
  proteasomal degradation of the fluorogenic nonapeptide LFP (10 μM) by 35 nM wild-type 20S proteasome with 175 nM PbaB, 45°C; fold acceleration by PbaB: ~3 fold

## B3
[6]
  stoichiometry N: 4

## B4
[2]
  stoichiometry N: 5
